Laboratory results reported in the supplement of paper PMC6755084.

B1: minF1; the commonest letter at each place (parent)
chain: GAGACCGCAACTGAAAAGTTGTTATCAGAAATGGATGGGTTGAATTTCTGCACGTAGAAGCAAAAGGC

Variants of: B1
Assay: fraction ligated after 30 min (ligated reads / total reads); higher = more ligase activity
Details: with F1*subA RNA substrate (template-directed ligation), 42 °C
How it was run: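 Using barcoded primers for reverse transcription and a MiSeq for sequencing, gel-separated ligated and unligated RNAs of minimized ligase ribozyme variants were read, with core-base filtering at quality ≥30. Fraction ligated per variant was defined as ligated reads over total reads.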

| Variant | fraction ligated |
| --- | --- |
| A24G G33T | 0.0804 |
| A24G G33C | 0.0566 |
| A24G G33A | 0.294 |
| C26G A43C | 0.00457 |
| C26G A43T | 0.00299 |
| C26G A43G | 0.00467 |
| T25A G28A | 0.011 |
| T25A G28C | 0.00741 |
| T25A G28T | 0.0157 |
| T25C T32G | 0.00219 |
| T25C T32C | 0.00341 |
| T25C T32A | 0.00778 |
| T25A A29T | 0.015 |
| T25A A29G | 0.00957 |
| T25A A29C | 0.00458 |
| A24G T32A | 0.00439 |
| A24G T32C | 0.00122 |
| A24G T32G | 0.00185 |
| A24T A29G | 0.00599 |
| A24T A29T | 0.0058 |
| A24T A29C | 0.0116 |
| T25G A43G | 0.00372 |
| T25G A43C | 0.00324 |
| T25G A43T | 0.00824 |

| Variant | fraction ligated |
| --- | --- |
| A24T | 0.011 |
| A24T G42T | 0.00308 |
| A24T G42C | 0.00191 |
| A24T G42A | 0.00238 |
| T25C A43T | 0.00508 |
| T25C A43G | 0.00741 |
| T25C A43C | 0.0068 |
| T25A G33C | 0.00366 |
| T25A G33T | 0.00763 |
| T25A G33A | 0.0105 |
| A24T G37C | 0.00436 |
| A24T G37T | 0.00399 |
| A24T G37A | 0.00164 |
| C26A G28A | 0.0578 |
| C26A G28C | 0.0637 |
| C26A G28T | 0.117 |
| A24T A35G | 0.00268 |
| A24T A35C | 0.0024 |
| A24T A35T | 0.00183 |
| T25A A30T | 0.0158 |
| T25A A30G | 0.00687 |
| T25A A30C | 0.0114 |
| T25A T32A | 0.00329 |
| T25A T32G | 0.00199 |

| Variant | fraction ligated |
| --- | --- |
| T25A T32C | 0.00391 |
| T25G | 0.0165 |
| T25C | 0.0278 |
| T25A | 0.00703 |
| C26T A43C | 0.00569 |
| C26T A43G | 0.0095 |
| C26T A43T | 0.0127 |
| A24G G34T | 0.000849 |
| A24G G34C | 0.00145 |
| A24G G34A | 0.00498 |
| C26T A27G | 0.544 |
| C26T A27C | 0.79 |
| C26T A27T | 0.816 |
| C26T A31T | 0.404 |
| C26T A31C | 0.312 |
| C26T A31G | 0.52 |
| C26G G37T | 0.00384 |
| C26G G37A | 0.00254 |
| C26G G37C | 0.00497 |
| C26G A35T | 0.000597 |
| C26G A35C | 0.00486 |
| C26G A35G | 0.00566 |
| T25G A44G | 0.00956 |
| T25G A44C | 0.00312 |

| Variant | fraction ligated |
| --- | --- |
| T25G A44T | 0.00667 |
| T25C G37T | 0.00523 |
| T25C G37C | 0.00302 |
| T25C G37A | 0.00575 |
| C26A G33T | 0.0279 |
| C26A G33C | 0.0427 |
| C26A G33A | 0.19 |
| T25G A35C | 0.845 |
| T25G A35G | 0.00379 |
| T25G A35T | 0.396 |
| T25G A31C | 0.0154 |
| T25G A31T | 0.0111 |
| T25G A31G | 0.0115 |
| T25A A35G | 0.0048 |
| T25A A35C | 0.0123 |
| T25A A35T | 0.458 |
| T25C G33A | 0.0508 |
| T25C G33C | 0.0119 |
| T25C G33T | 0.0306 |
| T25A A27G | 0.0139 |
| T25A A27C | 0.0652 |
| T25A A27T | 0.0564 |
| C26A A44C | 0.0236 |
| C26A A44G | 0.03 |

| Variant | fraction ligated |
| --- | --- |
| C26A A44T | 0.0723 |
| C26G A30G | 0.0544 |
| C26G A30C | 0.0436 |
| C26G A30T | 0.0435 |
| C26G T32A | 0.00367 |
| C26G T32C | 0.00208 |
| C26G T32G | 0.00509 |
| T25C A29T | 0.0467 |
| T25C A29G | 0.0416 |
| T25C A29C | 0.0251 |
| A24T A43G | 0.00117 |
| A24T A43T | 0.00827 |
| A24T A43C | 0.00315 |
| T25G G42C | 0.004 |
| T25G G42T | 0.000854 |
| T25G G42A | 0.00421 |
| T25G A27G | 0.0208 |
| T25G A27T | 0.0947 |
| T25G A27C | 0.0754 |
| T25A T36G | 0.0106 |
| T25A T36A | 0.00698 |
| T25A T36C | 0.00785 |
| C26G A27T | 0.0725 |
| C26G A27G | 0.0369 |

| Variant | fraction ligated |
| --- | --- |
| C26G A27C | 0.0501 |
| T25C T36A | 0.0394 |
| T25C T36G | 0.0541 |
| T25C T36C | 0.00974 |
| A24G G28A | 0.043 |
| A24G G28C | 0.065 |
| A24G G28T | 0.254 |
| T25C A44C | 0.00738 |
| T25C A44T | 0.0143 |
| T25C A44G | 0.0106 |
| C26G A29T | 0.0347 |
| C26G A29C | 0.0431 |
| C26G A29G | 0.0311 |
| A24T G33A | 0.0223 |
| A24T G33T | 0.0124 |
| A24T G33C | 0.00781 |
| C26A A35G | 0.00416 |
| C26A A35T | 0.00429 |
| C26A A35C | 0.00203 |
| A24G T25C | 0.01 |
| A24G T25G | 0.00212 |
| A24G T25A | 0.00617 |
| T25G G28A | 0.0158 |
| T25G G28C | 0.0182 |

| Variant | fraction ligated |
| --- | --- |
| T25G G28T | 0.0241 |
| C26A T36C | 0.00707 |
| C26A T36G | 0.0133 |
| C26A T36A | 0.0039 |
| A24T G28C | 0.0438 |
| A24T G28A | 0.0366 |
| A24T G28T | 0.0703 |
| C26G G33A | 0.0636 |
| C26G G33C | 0.00704 |
| C26G G33T | 0.0124 |
| A24G T36G | 0.00746 |
| A24G T36C | 0.0933 |
| A24G T36A | 0.0103 |
| A24T G34A | 0.0316 |
| A24T G34C | 0.00388 |
| A24T G34T | 0.00322 |
| T25A G42T | 0.00246 |
| T25A G42C | 0.00199 |
| T25A G42A | 0.00144 |
| A24G C26T | 0.00563 |
| A24G C26G | 0.00544 |
| A24G C26A | 0.0171 |
| T25A G37A | 0.00183 |
